In US20260218138A1, “ENGINEERED ACYLTRANSFERASES HAVING ALTERED SUBSTRATE SPECIFICITY” (KEZBIOSOLUTIONS GMBH, priority 2022, published 2026):
Like-named read-outs stand apart in the source and are kept apart here. Each block holds one molecule with its values, some of them ahead of it.

Tests used:
[1] = Screen: transfer of malonyl-moieties from Mal-CoA to N-(2-mercaptoethyl)-hexanamide (enzyme-coupled assay); type: biochemical, murine; conditions: fixed substrate and acceptor concentrations; FIG. 4
Experimental: Specific transfers from Mal-CoA to N-(2-mercaptoethyl)-hexanamide were analyzed at fixed substrate and acceptor concentrations. […] Shown error bares reflect standard deviations from triplicates.
Further engineered mutants were expressed, purified and analyzed, building up on the previous studies. A screen for fifty different exemplary mutants was performed analyzing the transfer of malonyl-moieties from CoA to N-(2-mercaptoethyl)-hexanamide. Four solutions were prepared as 4× concentrated stocks in the assay buffer. Solution 1 contained the acyltransferases at the concentration range of 0.01 μM-10 μM and were arranged in four groups depending on their individual turnover rates to achieve good signal to noise ratios. Solution 2 contained the enzyme-coupled system including 8 mM α-ketoglutaric acid, 1.6 mM NAD+, 1.6 mM TPP and 60 mU/100 μL αKGDH. Solution 3 contained a fixed concentration of malonyl (Mal)-CoA at 200 μM and solution 4 contained the acceptor N-(2-mercaptoethyl)-hexanamide at 200 μM. 5 μL of Solutions 1-3 were pipetted into a 384-well Small Volume HiBase Microplates (Greiner Bio-one) and mixed manually. The reactions were started by adding 5 μL of solution 4 with an automatic multichannel pipette (ClipTip). The reaction progress was recorded using the following settings: 348-20 nm; emission: 476-20 nm; gain: 1700; focal height: 12.1 mm; flashes: 10; orbital averaging: off. […]

[2] = In-depth kinetics: enzyme-coupled assay, malonyl transfer from Mal-CoA to ACP; type: biochemical, murine; conditions: substrate A (Mal-CoA)
Experimental: (§1) Y-axes show turnover in s^−1 and x-axes show substrate concentration in μM. Apparent kinetic parameters at a fixed acceptor concentration of ACP of 85 μM were determined by fitting the data points with the Michaelis-Menten function. Shown error bares reflect standard deviations from triplicates.
(§2) An enzyme-coupled assay was performed to analyze the transfer of acyl-moieties from CoA to the ACP. Four solutions were prepared as 4× concentrated stocks in the assay buffer. Solution 1 contained the acyltransferase at the concentration range of 0.01 μM-10 μM, depending on the transfer kinetics to achieve good signal to noise ratios. Solution 2 contained the enzyme-coupled system including 8 mM α-ketoglutaric acid, 1.6 mM NAD+, 1.6 mM TPP and 60 mU/100 μL αKGDH. Solution 3 contained the methylmalonyl (MMal)-CoA at concentrations between 0.1 μM and 1,000 μM and solution 4 contained the ACP from murine FAS as a standalone protein at 240 μM. 5 μL of Solutions 1-3 were pipetted into a 384-well Small Volume HiBase Microplates (Greiner Bio-one) and mixed manually. The reactions were started by adding solution 4 with the dispenser system of the microplate reader (ClarioStar, BMG labtech). The reaction progress was recorded using the following settings: 348-20 nm; emission: 476-20 nm; gain: 1500; focal height: 11.9 mm; flashes: 17; orbital averaging: off.
(§3) In-depth kinetic analysis results allowing a comparison of enzyme kinetic parameters for the transfer of malonyl-moieties from either Mal-CoA or 3-Oxo-3-[[2-[(1-oxohexyl)amino]ethyl]thio]-propanoic acid to the ACP are shown for a representative mutant (A35) herein. Enzyme kinetics were determined with the established enzyme-coupled assay for Mal-CoA kinetics and a variation of the new thiol quantifying assay using ThioGlo.
Enzyme-coupled assay was performed as described in Example 3 with 4× concentrated stocks. The enzyme concentration of A35 in Solution 1 was 4.2 μM, the substrate concentrations of Mal-CoA in Solutions 3 were between 8-400 μM and the acceptor concentration of ACP in Solution 4 was 340 μM.

[3] = In-depth kinetics: thiol quantification assay (ThioGlo), malonyl transfer from non-CoA substrate to ACP; type: biochemical, murine
Experimental: as §1
To verify the re-engineered mutant activity, having a substrate specificity altered from natural CoA substrates to non-CoA substrates, an alternative method to quantify specific turnover rates for non-CoA substrates was established. Such non-CoA substrates are not detectable by the enzyme-coupled assay. We used a thiol-sensitive fluorophore (ThioGlo4; Yi et al. 2009) to quantify the released free thiol groups from the substrate 3-Oxo-3-[[2-[(1-oxohexyl)amino]ethyl]thio]-propanoic acid after the enzyme-specific transfer of the malonyl moiety to a non-thiol acceptor. Briefly, three solutions were prepared in either a twofold concentration or as 4× concentrated stocks in the assay buffer. […] Free thiols were detected by adding 10 μL of 120 μM ThioGlo in the buffer 250 mM potassium phosphate, 1 mM EDTA and 10% glycerol, mixing and fluorescence detection at the microplate reader (ClarioStar, BMG labtech) using the following settings: 400-20 nm; emission: 465-20 nm; gain: 700; focal height: 12.5 mm; flashes: 20; orbital averaging: off. […]
as §3
A variation of the thiol quantification assay in Example 5 was established to be able to separate the liberated thiol groups from 3-Oxo-3-[[2-[(1-oxohexyl)amino]ethyl]thio]-propanoic acid after acyl-transfer from the thiol groups of the acceptor ACP. […]

[4] = Enzyme-coupled assay: transfer of acyl-moieties from MMal-CoA to the ACP; type: biochemical; conditions: substrate MMal-CoA, acceptor ACP from murine FAS
Experimental: as §2

[5] = Comparative data from Rittner et al. 2018; cited from earlier work
[6] = acceptor ACP fixed at 85 μM, apparent parameters
[7] = substrate B (3-Oxo-3-[[2-[(1-oxohexyl)amino]ethyl]thio]-propanoic acid), acceptor ACP fixed at 85 μM, apparent parameters

B1: Mutant A48: engineered murine acyltransferase, mutations T161A F184E R286D K186D D160R (protein)
chain: NKRPLWFICSGMGTQWRGMGLSLMRLDSFRESILRSDEAVKPLGVKVSDLLLSTDERTFDDIVHAFVSLTAIQIALIDLLTSVGLKPDGIIGHSLGEVACGYADGCLSQREAVLAAYWRGQCIKDAHLPPGSMAAVGLSWEECKQRCPAGVVPACHNSERAVTISGPQAAVNEFVEQLKQEGVEADEVRTGGLAFHSYFMEGIAPTLLQALKKVIREPRPRSARWLSTSIPEAQWQSSLARTSSAEYNVNNLVSPVLFQEALWHIPEHAVVLEIAPHALLQAVLKDGVKSSCTIIPLMKRDHKDNLEFFLTNLGKVHLT
turnover rate, transfer from Mal-CoA to N-(2-mercaptoethyl)-hexanamide [1]: did not give a detectable signal

Factor ([2]; acceptor ACP, kcat/Km relative to substrate A): 1
B2: Mutant A35: engineered murine acyltransferase, mutations T161L F184L R286L K186D R300D (protein)
chain: NKRPLWFICSGMGTQWRGMGLSLMRLDSFRESILRSDEAVKPLGVKVSDLLLSTDERTFDDIVHAFVSLTAIQIALIDLLTSVGLKPDGIIGHSLGEVACGYADGCLSQREAVLAAYWRGQCIKDAHLPPGSMAAVGLSWEECKQRCPAGVVPACHNSEDLVTISGPQAAVNEFVEQLKQEGVLADEVRTGGLAFHSYFMEGIAPTLLQALKKVIREPRPRSARWLSTSIPEAQWQSSLARTSSAEYNVNNLVSPVLFQEALWHIPEHAVVLEIAPHALLQAVLKLGVKSSCTIIPLMKDDHKDNLEFFLTNLGKVHLT
Km [2, 6]: 25 µM | kcat [2, 6]: 0.01 s⁻¹ | Km [3, 7]: 30 µM | kcat [3, 7]: 5.75 s⁻¹ | Factor ([3]; substrate B (non-CoA substrate), acceptor ACP, kcat/Km relative to substrate A (Mal-CoA)): 467

B3: (WT): wild type murine FAS malonyl-acetyl-transferase (MAT), no mutation (protein, listed as Mus musculus)
chain: NKRPLWFICSGMGTQWRGMGLSLMRLDSFRESILRSDEAVKPLGVKVSDLLLSTDERTFDDIVHAFVSLTAIQIALIDLLTSVGLKPDGIIGHSLGEVACGYADGCLSQREAVLAAYWRGQCIKDAHLPPGSMAAVGLSWEECKQRCPAGVVPACHNSEDTVTISGPQAAVNEFVEQLKQEGVFAKEVRTGGLAFHSYFMEGIAPTLLQALKKVIREPRPRSARWLSTSIPEAQWQSSLARTSSAEYNVNNLVSPVLFQEALWHIPEHAVVLEIAPHALLQAVLKRGVKSSCTIIPLMKRDHKDNLEFFLTNLGKVHLT
Km [4]: 0.53 µM | kcat [4]: 1.297 s⁻¹ | Km [5]: 0.62 µM | kcat [5]: 4.000 s⁻¹
